Article PMC10504348
Several values for one entry are separate records, joined by “and”; a condition that tells them apart may be missing. Equal entries are not always repeated.

How the values were obtained:
[1] = target: C-terminally truncated HRSV nucleoprotein N1-370 (strain Long), as N-RNA assemblies (Human respiratory syncytial virus (strain Long)) (UniProt P03418); assay: cryo-EM structure; purified N-RNA assemblies in TEN buffer (50 mM Tris-HCl, 10 mM EDTA, 150 mM NaCl, pH 7.4), plunge-frozen on holey carbon grids; Glacios microscope, K2 detector; assemblies classified and reconstructed separately
[2] = target: Human respiratory syncytial virus nucleoprotein N, full-length wild type (strain Long), as N-RNA assemblies (Human respiratory syncytial virus (strain Long)) (UniProt P03418); assay: as above

Substance: C-terminally truncated HRSV nucleoprotein N1-370 (strain Long), as N-RNA assemblies (from UniProt P03418 1-370) (domain or fragment)
- stoichiometry N [1]: 10

Substance: Human respiratory syncytial virus nucleoprotein N, full-length wild type (strain Long), as N-RNA assemblies (from UniProt P03418 1-391) (natural protein)
- stoichiometry N [2]: 10 and 11
